We go through eight molecules from patent publication US20220025010A1 (ANTAG THERAPEUTICS, published 2022).

*1 amine or outer side, *2 acyl side, *3 side chain or, on linkers, in order; H or OH if unused. Where no end group is shown, it is not given here. Side-chain parts run from the residue outwards. The star is where a group is joined. C18 diacid = O=C(O)CCCCCCCCCCCCCCCCC(=O)*; C16 diacid = O=C(O)CCCCCCCCCCCCCCC(=O)*; γGlu = O=C(O)[C@H](CCC(=O)[*:2])N[*:1]; AEEA = NCCOCCOCC(=O)O

For this test, the target named is T1, human GIP receptor (human, UniProt P48546 22-466).
T1 sequence (looked up): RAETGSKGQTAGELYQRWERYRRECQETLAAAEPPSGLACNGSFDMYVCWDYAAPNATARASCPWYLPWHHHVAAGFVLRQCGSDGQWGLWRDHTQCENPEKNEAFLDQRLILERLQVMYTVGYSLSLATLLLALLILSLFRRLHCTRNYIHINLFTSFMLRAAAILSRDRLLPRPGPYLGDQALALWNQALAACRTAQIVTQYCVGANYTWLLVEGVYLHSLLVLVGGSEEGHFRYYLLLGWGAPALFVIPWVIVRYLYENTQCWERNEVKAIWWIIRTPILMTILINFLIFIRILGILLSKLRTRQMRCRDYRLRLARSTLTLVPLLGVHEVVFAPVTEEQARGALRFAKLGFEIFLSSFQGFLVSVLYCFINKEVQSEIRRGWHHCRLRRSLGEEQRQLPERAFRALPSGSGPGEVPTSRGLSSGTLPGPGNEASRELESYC
Nature of the test: cell-based or functional assay.

B1: AT234 (peptide)
peptide: TFISDYSIALDRIKQQDFVNWLLAQR-NH2
modifications: not fully specified (residue 14); printed as TFISDYSIALDRIKQQDFVNWLLAQR-(AEEAc +γ-Glu)-C16-diacid/K18
B1: the “CisBio cAMP agonism % Efficacy” value was found to be 0%, the “CisBio cAMP antagonism % inhib” value turned out to be 66%, the “CisBio cAMP antagonism IC50” value was 39.8 nM and the “CisBio cAMP antagonism pIC50” value was 7.4. For the same molecule, the “DiscoveRx cAMP agonism Emax” value stood at 26, the “DiscoveRx cAMP antagonism IC50” value was found to be 16 nM and the “DiscoveRx cAMP antagonism log IC50” value is -7.8 log M.

B2: AT267 (peptide)
peptide: PGTFISDYSIAMDRIKQQDFVNWLLAQR
HELM: PEPTIDE1{P.G.T.F.I.S.D.Y.S.I.A.M.D.R.I.K.Q.Q.D.F.V.N.W.L.L.A.Q.R}|PEPTIDE2{[O=C(O)CCCCCCCCCCCCCCC(=O)[*:2]].[gGlu]}$PEPTIDE1,PEPTIDE2,16:R3-2:R2$$$V2.0; N-terminus assumed
SMILES: CC[C@H](C)[C@H](NC(=O)[C@H](CO)NC(=O)[C@H](Cc1ccc(O)cc1)NC(=O)[C@H](CC(=O)O)NC(=O)[C@H](CO)NC(=O)[C@@H](NC(=O)[C@H](Cc1ccccc1)NC(=O)[C@@H](NC(=O)CNC(=O)[C@@H]1CCCN1)[C@@H](C)O)[C@@H](C)CC)C(=O)N[C@@H](C)C(=O)N[C@@H](CCSC)C(=O)N[C@@H](CC(=O)O)C(=O)N[C@@H](CCCNC(=N)N)C(=O)N[C@H](C(=O)N[C@@H](CCCCNC(=O)CC[C@H](NC(=O)CCCCCCCCCCCCCCC(=O)O)C(=O)O)C(=O)N[C@@H](CCC(N)=O)C(=O)N[C@@H](CCC(N)=O)C(=O)N[C@@H](CC(=O)O)C(=O)N[C@@H](Cc1ccccc1)C(=O)N[C@H](C(=O)N[C@@H](CC(N)=O)C(=O)N[C@@H](Cc1c[nH]c2ccccc12)C(=O)N[C@@H](CC(C)C)C(=O)N[C@@H](CC(C)C)C(=O)N[C@@H](C)C(=O)N[C@@H](CCC(N)=O)C(=O)N[C@@H](CCCNC(=N)N)C(=O)O)C(C)C)[C@@H](C)CC
Consider B2, for which the “CisBio cAMP agonism % Efficacy” value stood at 4%, the “CisBio cAMP antagonism % inhib” value came to 52%, the “CisBio cAMP antagonism IC50” value was found to be 736 nM and the “CisBio cAMP antagonism pIC50” value was determined as 6.1. For the same molecule, the “DiscoveRx cAMP agonism Emax” value worked out at 16, the “DiscoveRx cAMP antagonism IC50” value worked out at 123 nM and the “DiscoveRx cAMP antagonism log IC50” value is -6.9 log M.

B3: AT374 (peptide)
peptide: EGTFISDYSIAMDRIK([AEEA-AEEA-γGlu-C16 diacid])QQDFVNWLLAQR-NH2
modifications: not fully specified (residue 1)
In the case of B3, the “CisBio cAMP agonism % Efficacy” value stood at 0%, the “CisBio cAMP antagonism % inhib” value turned out to be 86%, the “CisBio cAMP antagonism IC50” value stood at 17.1 nM and the “CisBio cAMP antagonism pIC50” value came out at 7.8. The “DiscoveRx cAMP antagonism % inhib” value is 100%, the “DiscoveRx cAMP antagonism IC50” value worked out at 12 nM and the “DiscoveRx cAMP antagonism log IC50” value is -7.9 log M.

B4: AT375 (peptide)
peptide: EGTFISDYSIAMDRIK([AEEA-AEEA-AEEA-γGlu-C16 diacid])QQDFVNWLLAQR-NH2
modifications: not fully specified (residue 1)
On to B4, for which the “CisBio cAMP agonism % Efficacy” value turned out to be 6%, the “CisBio cAMP antagonism % inhib” value amounted to 83%, the “CisBio cAMP antagonism IC50” value was 23.3 nM and the “CisBio cAMP antagonism pIC50” value came to 7.6. In addition, the “DiscoveRx cAMP antagonism % inhib” value came to 100%, the “DiscoveRx cAMP antagonism IC50” value worked out at 22 nM and the “DiscoveRx cAMP antagonism log IC50” value was -7.7 log M.

B5: AT376 (peptide)
peptide: EGTFISDYSIAMDRIK([AEEA-γGlu-C18 diacid])QQDFVNWLLAQR-NH2
modifications: not fully specified (residue 1)
In the case of B5, the “CisBio cAMP agonism % Efficacy” value was 0%, the “CisBio cAMP antagonism % inhib” value was 87%, the “CisBio cAMP antagonism IC50” value is 6.81 nM and the “CisBio cAMP antagonism pIC50” value is 8.2. Besides, the “DiscoveRx cAMP antagonism % inhib” value was determined as 90%, the “DiscoveRx cAMP antagonism IC50” value was determined as 19 nM and the “DiscoveRx cAMP antagonism log IC50” value is -7.7 log M.

B6: AT233 (peptide)
peptide: TFISDYSIALDRIKQQDFVNWLLAQR
HELM: PEPTIDE1{T.F.I.S.D.Y.S.I.A.L.D.R.I.K.Q.Q.D.F.V.N.W.L.L.A.Q.R.[am]}|PEPTIDE2{[O=C(O)CCCCCCCCCCCCCCC(=O)[*:2]].[gGlu]}$PEPTIDE1,PEPTIDE2,14:R3-2:R2$$$V2.0; N-terminus assumed
SMILES: CC[C@H](C)[C@H](NC(=O)[C@H](CO)NC(=O)[C@H](Cc1ccc(O)cc1)NC(=O)[C@H](CC(=O)O)NC(=O)[C@H](CO)NC(=O)[C@@H](NC(=O)[C@H](Cc1ccccc1)NC(=O)[C@@H](N)[C@@H](C)O)[C@@H](C)CC)C(=O)N[C@@H](C)C(=O)N[C@@H](CC(C)C)C(=O)N[C@@H](CC(=O)O)C(=O)N[C@@H](CCCNC(=N)N)C(=O)N[C@H](C(=O)N[C@@H](CCCCNC(=O)CC[C@H](NC(=O)CCCCCCCCCCCCCCC(=O)O)C(=O)O)C(=O)N[C@@H](CCC(N)=O)C(=O)N[C@@H](CCC(N)=O)C(=O)N[C@@H](CC(=O)O)C(=O)N[C@@H](Cc1ccccc1)C(=O)N[C@H](C(=O)N[C@@H](CC(N)=O)C(=O)N[C@@H](Cc1c[nH]c2ccccc12)C(=O)N[C@@H](CC(C)C)C(=O)N[C@@H](CC(C)C)C(=O)N[C@@H](C)C(=O)N[C@@H](CCC(N)=O)C(=O)N[C@@H](CCCNC(=N)N)C(N)=O)C(C)C)[C@@H](C)CC
Regarding B6, the “CisBio cAMP agonism % Efficacy” value came to 0%, the “CisBio cAMP antagonism % inhib” value amounted to 70%, the “CisBio cAMP antagonism IC50” value was 34.2 nM and the “CisBio cAMP antagonism pIC50” value is 7.5. The “DiscoveRx cAMP agonism Emax” value amounted to 28, the “DiscoveRx cAMP antagonism IC50” value stood at 32 nM and the “DiscoveRx cAMP antagonism log IC50” value was -7.5 log M.

B7: AT378 (peptide)
peptide: EGTFISDYSIAMDRIK([AEEA-AEEA-AEEA-γGlu-C18 diacid])QQDFVNWLLAQR-NH2
modifications: not fully specified (residue 1)
As for B7, the “CisBio cAMP agonism % Efficacy” value amounted to 0%, the “CisBio cAMP antagonism % inhib” value was 90%, the “CisBio cAMP antagonism IC50” value is 11.7 nM and the “CisBio cAMP antagonism pIC50” value was determined as 7.9. Further, the “DiscoveRx cAMP antagonism % inhib” value was determined as 92%, the “DiscoveRx cAMP antagonism IC50” value amounted to 16 nM and the “DiscoveRx cAMP antagonism log IC50” value is -7.8 log M.

B8: AT377 (peptide)
peptide: EGTFISDYSIAMDRIK([AEEA-AEEA-γGlu-C18 diacid])QQDFVNWLLAQR-NH2
modifications: not fully specified (residue 1)
As to B8, the “CisBio cAMP agonism % Efficacy” value is 0%, the “CisBio cAMP antagonism % inhib” value was determined as 90%, the “CisBio cAMP antagonism IC50” value stood at 18.5 nM and the “CisBio cAMP antagonism pIC50” value is 7.7. For the same molecule, the “DiscoveRx cAMP antagonism % inhib” value was 100%, the “DiscoveRx cAMP antagonism IC50” value came to 19 nM and the “DiscoveRx cAMP antagonism log IC50” value was -7.7 log M.
